Laboratory results taken from publication PMC6678494, “Characterization of the First Bacterial and Thermostable GDP-Mannose 3,5-Epimerase” (International Journal of Molecular Sciences, 2019).
One block for each molecule: values may come before it.

Legend:
[1] = molecular target: T1, MfGM35E (Candidatus Methylacidiphilum fumarolicum, UniProt A0ABM9IGG7); test: specific activity with added NAD+, HPAEC-PAD; type: biochemical; conditions: 2 mM GDP-Man, 100 mM MOPS pH 7.5, 50 °C; independent of added NAD+ concentration
T1 construct: gene MFUM_2356; codon-optimized gene in pET21 (NdeI/XhoI), C-terminal His6-tag kept, E. coli BL21(DE3), Ni-NTA, about 37 kDa

[2] = substrate: Nc1nc2c(ncn2[C@@H]2O[C@H](COP(=O)(O)OP(=O)(O)O[C@H]3O[C@H](CO)[C@@H](O)[C@H](O)[C@@H]3O)[C@@H](O)[C@H]2O)c(=O)[nH]1; test: initial rate of GDP-L-galactose formation, HPAEC-PAD, Michaelis-Menten fit; type: biochemical, Candidatus Methylacidiphilum fumarolicum; conditions: 100 mM MOPS pH 7, 60 °C, 20-2000 µM substrate

- % increase in activity [1]: 65%
Molecule: NC(=O)c1ccc[n+]([C@@H]2O[C@H](COP(=O)(O)OP(=O)(O)OC[C@H]3O[C@@H](n4cnc5c(N)ncnc54)[C@H](O)[C@@H]3O)[C@@H](O)[C@H]2O)c1 [NAD^+]

B1: MfGM35E (Candidatus Methylacidiphilum fumarolicum) (protein)
chain: MKKALVAGAGGFIGHHLVNFLKEKGYWVRGVDIKEPEYEKSRSDEFYLLDLRYWGNCLEATKGVDEVYQLAADMGGIGYISGNHAEIAKNNILINTHMLEASYQNGVKRYFYSSSACIYPSYRQQSVDVIPLKEEDAMPADPEEGYGWEKLFAEKLCQYYQEDKGIETRIARFHNVYGPLGTYKGGREKAPAAICRKIALAEDSSEIEVWGDGKQTRSFLYIQDCVEGIYLITQSDYPKPLNLGSEELVTIDQLVEMTAKVANKNIRIRHNLSKPQGVRGRNSDNSKLYKITGWRPKFPLLEGLKLTYPWIAERVARERNMQGCQ
notes: codon-optimized gene in pET21 (NdeI/XhoI), C-terminal His6-tag kept, E. coli BL21(DE3), Ni-NTA, about 37 kDa
- Km [2]: 98 µM
- kcat [2]: 0.2 s⁻¹
